In PMC5330260 (Analytical biochemistry, 2017):

Target: Gαi1 (human, UniProt P63096 1-354)
Experiment: split reporter

Sequence of Gαi1 (P63096 whole entry): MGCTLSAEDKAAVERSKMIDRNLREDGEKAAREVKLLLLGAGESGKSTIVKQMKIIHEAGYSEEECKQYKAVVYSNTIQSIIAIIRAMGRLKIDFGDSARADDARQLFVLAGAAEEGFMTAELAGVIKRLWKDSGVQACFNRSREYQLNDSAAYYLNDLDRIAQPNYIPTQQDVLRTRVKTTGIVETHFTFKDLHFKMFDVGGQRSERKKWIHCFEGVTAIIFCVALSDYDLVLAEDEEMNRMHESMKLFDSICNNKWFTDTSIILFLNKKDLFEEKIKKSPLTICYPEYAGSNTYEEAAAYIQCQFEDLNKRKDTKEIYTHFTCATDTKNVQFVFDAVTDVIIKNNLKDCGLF

net signal increase in response to AlF4, fold of that of RGS6: 2.8 fold | net signal increase in response to AlF4, fold of that of RGS7: 6.3 fold
B1: RGS17 RH domain (domain or fragment, human, UniProt Q9UGC6 73-201, looked up)
chain: PTAEEVLSWSQNFDKMMKAPAGRNLFREFLRTEYSEENLLFWLACEDLKKEQNKKVIEEKARMIYEDYISILSPKEVSLDSRVREVINRNLLDPNPHMYEDAQLQIYTLMHRDSFPRFLNSQIYKSFVE
